Test results published in paper PMC9993113, “Assay development and inhibition of the Mt-DprE2 essential reductase from Mycobacterium tuberculosis” (Microbiology, 2023).

Assays:
[1] = target: T1, Mt-DprE1 (Mycobacterium tuberculosis, UniProt P9WJF1); assay: resazurin-based DprE1 enzyme assay with GGPR substrate; type: biochemical
T1 construct: N-terminal hexa-his tag

[2] = test system: CC(C)=CCC/C(C)=C/CC/C(C)=C/CC/C(C)=C/COP(=O)(O)O[C@@H]1O[C@H](CO)[C@@H](O)[C@H]1O; assay: purified protein; conditions: FAD
[3] = test system: NC(=O)C1=CN([C@@H]2O[C@H](COP(=O)(O)OP(=O)(O)OC[C@H]3O[C@@H](n4cnc5c(N)ncnc54)[C@H](O)[C@@H]3O)[C@@H](O)[C@H]2O)C=CC1; assay: purified protein; conditions: varied: cofactor
[4] = test system: NC(=O)C1=CN([C@@H]2O[C@H](COP(=O)(O)OP(=O)(O)OC[C@H]3O[C@@H](n4cnc5c(N)ncnc54)[C@H](OP(=O)(O)O)[C@@H]3O)[C@@H](O)[C@H]2O)C=CC1; assay: purified protein; conditions: varied: cofactor

T1 sequence (P9WJF1 whole entry): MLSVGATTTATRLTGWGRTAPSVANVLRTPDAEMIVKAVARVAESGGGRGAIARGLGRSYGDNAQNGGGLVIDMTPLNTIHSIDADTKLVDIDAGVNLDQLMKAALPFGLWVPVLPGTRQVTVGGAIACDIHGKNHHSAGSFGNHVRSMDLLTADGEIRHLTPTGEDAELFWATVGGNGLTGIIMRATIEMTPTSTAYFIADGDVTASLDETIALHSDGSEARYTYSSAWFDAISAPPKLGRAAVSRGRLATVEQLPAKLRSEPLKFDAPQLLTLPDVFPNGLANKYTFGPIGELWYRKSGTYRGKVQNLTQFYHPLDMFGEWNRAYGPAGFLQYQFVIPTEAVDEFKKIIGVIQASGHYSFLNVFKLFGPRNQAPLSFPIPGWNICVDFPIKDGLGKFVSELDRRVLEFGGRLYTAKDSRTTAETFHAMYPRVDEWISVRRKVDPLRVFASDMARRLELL

Q: For BTZ, which IC50 [1] is on record?
A: Its IC50 is 5.7 ± 0.5 µM.

Q: Which Km [2] does the source give for “Mt-DprE1 (Mycobacterium tuberculosis H37Rv)” here?
A: Its Km is 36.9 ± 0.7 µM.

Q: And the Vmax [2]?
A: The Vmax was 35.8 µM/min.

Q: For “Mt-DprE2 (Mycobacterium tuberculosis H37Rv)”, which Km [3] is on record?
A: The Km was 10.5 ± 5.6 µM.

Q: And the Vmax [3]?
A: The Vmax was 14.3 µM/min.

Q: What about the Km [4] of the same substance?
A: The Km was 34.6 ± 11.2 µM.

Q: And the Vmax [4]?
A: The Vmax was 11.2 µM/min.
